Molecular target: T1, SifA (1–330), as in the calorimetry and the crystal (S. typhimurium, UniProt Q56061 1-330)
T1 sequence: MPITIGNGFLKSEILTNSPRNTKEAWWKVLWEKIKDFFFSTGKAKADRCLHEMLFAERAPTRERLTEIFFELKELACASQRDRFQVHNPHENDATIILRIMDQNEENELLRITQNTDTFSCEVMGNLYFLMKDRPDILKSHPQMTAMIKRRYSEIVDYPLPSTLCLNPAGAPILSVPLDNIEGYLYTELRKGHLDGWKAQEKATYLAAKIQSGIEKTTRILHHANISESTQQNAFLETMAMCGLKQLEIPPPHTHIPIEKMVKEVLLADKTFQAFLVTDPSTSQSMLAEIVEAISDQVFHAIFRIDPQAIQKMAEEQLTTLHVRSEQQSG
Test: ITC

B1: PH domain (PHD) of SKIP (774–883), as in the calorimetry and the crystal (domain or fragment, UniProt Q8IWE5 774-883, looked up)
chain: KEGMLHYKAGTSYLGKEHWKTCFVVLSNGILYQYPDRTDVIPLLSVNMGGEQCGGCRRANTTDRPHAFQVILSDRPCLELSAESEAEMAEWMQHLCQAVSKGVIPQGVAP
Kd: 2580 nM

From article PMC2658612 (Cell host & microbe, 2008)
